Assay results taken from PMC6511849 (Nucleic Acids Research, 2019).
Values belong to the molecule of their own block, whether it stands above or below them. Non-standard residues stand in square brackets, D forms with d. No end group written: not given here. *: point of attachment. FITC = O=C1OC2(c3ccc(O)cc3Oc3cc(O)ccc32)c2ccc(NC(=S)*)cc21; pS = N[C@@H](COP(=O)(O)O)C(=O)O; Ahx = NCCCCCC(=O)O

B1: D3P peptide with Glu for Tyr at position 1 (ERERERER backbone with phosphoserine at position 5) (peptide)
peptide: {FITC-Ahx}-ERER[pS]RER
B2: transportin 3 (TNPO3) (natural protein)
chain: MEGAKPTLQLVYQAVQALYHDPDPSGKERASFWLGELQRSVHAWEISDQLLQIRQDVESCYFAAQTMKMKIQTSFYELPTDSHASLRDSLLTHIQNLKDLSPVIVTQLALAIADLALQMPSWKGCVQTLVEKYSNDVTSLPFLLEILTVLPEEVHSRSLRIGANRRTEIIEDLAFYSSTVVSLLMTCVEKAGTDEKMLMKVFRCLGSWFNLGVLDSNFMANNKLLALLFEVLQQDKTSSNLHEAASDCVCSALYAIENVETNLPLAMQLFQGVLTLETAYHMAVAREDLDKVLNYCRIFTELCETFLEKIVCTPGQGLGDLRTLELLLICAGHPQYEVVEISFNFWYRLGEHLYKTNDEVIHGIFKAYIQRLLHALARHCQLEPDHEGVPEETDDFGEFRMRVSDLVKDLIFLIGSMECFAQLYSTLKEGNPPWEVTEAVLFIMAAIAKSVDPENNPTLVEVLEGVVRLPETVHTAVRYTSIELVGEMSEVVDRNPQFLDPVLGYLMKGLCEKPLASAAAKAIHNICSVCRDHMAQHFNGLLEIARSLDSFLLSPEAAVGLLKGTALVLARLPLDKITECLSELCSVQVMALKKLLSQEPSNGISSDPTVFLDRLAVIFRHTNPIVENGQTHPCQKVIQEIWPVLSETLNKHRADNRIVERCCRCLRFAVRCVGKGSAALLQPLVTQMVNVYHVHQHSCFLYLGSILVDEYGMEEGCRQGLLDMLQALCIPTFQLLEQQNGLQNHPDTVDDLFRLATRFIQRSPVTLLRSQVVIPILQWAIASTTLDHRDANCSVMRFLRDLIHTGVANDHEEDFELRKELIGQVMNQLGQQLVSQLLHTCCFCLPPYTLPDVAEVLWEIMQVDRPTFCRWLENSLKGLPKETTVGAVTVTHKQLTDFHKQVTSAEECKQVCWALRDFTRLFR

Experiments:
TNPO3 = TNPO3 (UniProt Q9Y5L0); assay: fluorescence polarisation titration; settings: reference: unmodified D23 peptide
transportin 3 (TNPO3) = target: B2; assay: fluorescence polarisation
[1] = target: GST-RSLD-WT, non-phosphorylated (expressed without CLK1) (human); assay: pull-down
[2] = target: SRSF1 RS peptide (unmodified 8-mer); assay: fluorescence polarisation
[3] = target: CPSF6 D1 peptide (unmodified 8-mer) (human); assay: fluorescence polarisation
[4] = target: SRSF1 RSP peptide (phosphorylated 8-mer); assay: fluorescence polarisation
[5] = target: CPSF6 D2 peptide (unmodified 8-mer) (human); assay: fluorescence polarisation
[6] = target: ER/S peptide (D3 peptide with Glu for Tyr at position 1) (human) (UniProt Q16630); assay: fluorescence polarisation
CPSF6 D2P-D3 peptide = target: T1, CPSF6 D2P-D3 peptide (human, UniProt Q16630 509-528); assay: fluorescence polarisation
T1 peptide: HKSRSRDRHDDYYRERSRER

[7] = target: B1; assay: fluorescence polarisation
[8] = target: T2, ERERERER backbone with Tyr at position 1; assay: fluorescence polarisation
T2 peptide: {FITC-Ahx}-YRERERER

CPSF6 D23-4Glu peptide = target: T3, CPSF6 D23-4Glu peptide (human, UniProt Q16630 509-528, K510E | R512E | R522E | R524E, FITC-Ahx label); assay: fluorescence polarisation
T3 peptide: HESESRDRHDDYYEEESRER

Sequence of GST-RSLD-WT, non-phosphorylated (expressed without CLK1) (human) (Q16630 whole entry): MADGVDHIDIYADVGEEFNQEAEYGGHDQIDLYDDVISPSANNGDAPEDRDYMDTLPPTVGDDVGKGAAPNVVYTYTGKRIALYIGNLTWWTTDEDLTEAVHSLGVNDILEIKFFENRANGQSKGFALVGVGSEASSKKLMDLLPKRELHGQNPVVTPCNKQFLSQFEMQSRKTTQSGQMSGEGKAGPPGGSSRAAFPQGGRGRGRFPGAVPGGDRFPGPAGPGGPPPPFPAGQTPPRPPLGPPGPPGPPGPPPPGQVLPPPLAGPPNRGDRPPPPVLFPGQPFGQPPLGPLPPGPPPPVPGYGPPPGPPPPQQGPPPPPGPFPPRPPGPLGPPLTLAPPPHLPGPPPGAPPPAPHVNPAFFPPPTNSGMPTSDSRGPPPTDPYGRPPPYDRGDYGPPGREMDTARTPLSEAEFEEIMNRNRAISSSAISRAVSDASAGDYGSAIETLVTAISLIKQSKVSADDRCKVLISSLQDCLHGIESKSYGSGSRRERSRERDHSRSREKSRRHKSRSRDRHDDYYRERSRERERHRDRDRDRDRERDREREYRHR
Sequence of ER/S peptide (D3 peptide with Glu for Tyr at position 1) (human) (Q16630 whole entry, looked up, tested part not stated): as the sequence (Q16630 whole entry) above

Molecule: CPSF6 D2-D3 region 20-mer (D23) (from UniProt Q16630) D2P-D3 peptide
- fold change (TNPO3; sites S511,S513): stronger

Molecule: B1
- Kd (transportin 3 (TNPO3)): 17.1 µM

Molecule: B2
- percent of input TNPO3 recovered [1]: 30%
- Kd [2]: > 1000 µM
- Kd [3]: 141 µM
- Kd [4]: 1.3 µM
- Kd [5]: > 1000 µM
- Kd [6]: > 1000 µM
- fold increase of affinity against the D23 peptide (CPSF6 D2P-D3 peptide): ~3.3 fold
- fold increase of affinity against the ERERERER backbone [7]: ~5 fold
- fold increase of affinity against the ERERERER backbone [8]: ~10 fold
- fold reduction of affinity against the D23 peptide (CPSF6 D23-4Glu peptide): ~25 fold

Results, then the molecule that gave them:

- fold change (TNPO3; sites S525): stronger
Molecule: CPSF6 D2-D3 region 20-mer (D23) (from UniProt Q16630) D2-D3P peptide

- fold change (TNPO3; sites S511,S513,S525): stronger
Molecule: CPSF6 D2-D3 region 20-mer (D23) (from UniProt Q16630) D2P-D3P peptide
